From paper PMC3870462 (Chemistry & biology, 2013)
Like-named read-outs stand apart in the source and are kept apart here.

Columns and labels:
[1] = target: PikAIIID-^ACPddG (not stated | Moorea producens)
[2] = target: CurK ACP-dd (Moorea producens); assay: fluorescence polarisation
[3] = target: CurL ACP-dd (Moorea producens); assay: fluorescence polarisation
[4] = target: CurK ACP-dd E2224R (Moorea producens); assay: fluorescence polarisation
[5] = target: CurG ACP-dd (Moorea producens); assay: fluorescence polarisation
[6] = target: CurK ACP-dd E2224R (Moorea producens); assay: fluorescence polarisation; remark: listed apart in the source
[7] = target: Avitag-CurG ACP-dd (Moorea producens); assay: BLI
[8] = target: CurI dd-KS-AT dimer (Moorea producens); assay: SEC
[9] = target: CurH ACP-dd (Moorea producens); assay: fluorescence polarisation
[10] = target: CurK-CurL ^ACPddK-G3SG3S-ddL^KS (Moorea producens)
[11] = target: CurL dd^KS (Moorea producens); assay: crystal structure
crystal structure = target: the molecule itself; assay: crystal structure
[12] = target: the molecule itself

Molecule: ddH^KS-PikAIV (enzyme)
- 10-deoxymethynolide (10-dml) produced, percent of wild type PikAIII/PikAIV [1]: 188%
- narbonolide (nbl) produced, percent of wild type PikAIII/PikAIV [1]: 70%
- pentaketide substrate consumed in the PikAIII/PikAIV two-module reaction [1]: 86%

Molecule: CurM dd-KS-AT (domain or fragment)
- Kd [2]: 52 µM
- Kd [3]: 5.4 µM

Molecule: CurH dd-KS-AT (domain or fragment)
- Kd [2]: 23.7 µM
- Kd [4]: 9.2 µM
- Kd [5]: 15.7 µM
- Kd [6]: 10 µM
- Kd [7]: 16.5 µM

Molecule: CurH dd-KS-AT lacking helix αA and the dd^KS loop (domain or fragment)
- Kd [5]: 117 µM

Molecule: CurI dd-KS-AT dimer (domain or fragment)
- stoichiometry N [8]: 2
- Kd [9]: 9.4 µM

Molecule: CurK-CurL ^ACPddK-G3SG3S-ddL^KS
- stoichiometry N [10]: 2

Molecule: CurL dd^KS (domain or fragment)
- stoichiometry N [11]: 2

Molecule: CurI dd-KS-AT (domain or fragment)
- Kd [9]: 20.5 µM

B1: CurL dd-KS-AT (domain or fragment, Moorea producens)
chain: MNLKQEQEKEQSLSALQRALIALKDARSKLEKYETQSKEPIAIIGMSCRFPGGVDSPESFWQLLNDGVDAISEVPSNRWNINNYYDPDPDATGKISTRDGGFLSQIDGFDAPFFCISPREVQSLDPQQRLLLEVSWEAIERANIVPDQLFNSLTGVFIGIGSSDYLNQLATSEVPQAYWGTGNAPSAATGRLSYILGLTGPNLAVETACSSSLVSLHLACQSLRQQECNLALAGGVNLLLSPETSIIFSQAKMLSPDGRCKTFDASANGYVRGEGCGVIVLKRLSDAVANGDNVLAVIRGTAINQDGASGGLTVPNGPSQVAVIRKALSNGGVDPASVSYIEAHGTGTSLGDPIEVGAIGTVFGKTHSQEQPLIVGTAKTNIGHLEVAAGIAGLMKVVLQLQHQQIAPSLHFKQPNPYINWSQLPVQVSTQLTPWQTNGKSRIAGVSSFGFSGTNAHVVIEEAPKEGNSLSATVEENGNSTVKEDTLERAVYLLTLSAKTQAALDDLVNSYQNYLKNYPELRIADICYTANTCRSHFNNRLAVVASNQQELVEKLRQHQQGEEVTGIYSIELPNNSTAPKIALLFTGQGSQYVNMGRQLYQQAPVFRKALEQCNEILLGTETFREKSLLEILYPANQEQSNSSLLDQTAYTQPCLFALEYALFKLWQSWGIQPDVVMGHSVGEYVAATVAGVFSLEEGLKLIAARGRLMQQLPAGGEMVSVIASESKVLEIFKAMSLEEKVAIAAINGPESTVISGEAEAVGAIATHLESLSIKTKQLQVSHAFHSRLMEPMLAEFEAVAKQVTYSQPQISLISNVTGQQVGSEITSAEYWVNHVRQPVRFSESMTTLHQEGYELFLEIGPKPILLGMGRQCLPEGVGVWLPSLRPGVEAWQQMLQSLGQLYMKGIKVNWSGFDQDYACHKVAIPTYPFQRESYWIDT
- stoichiometry N (crystal structure): 2
- Kd [2]: 4.5 µM

B2: CurG-CurH ^ACPddG-G3SG3S-ddH^KS (other, Moorea producens)
chain: LEAKLLDEIKQSSNQELESSIDQILESIINGGGSGGGSMLNKFTKKEQILSEKQQIKQLSPLQRAALALKKLETKLNNTLHE
- stoichiometry N [12]: 2
